# In patent publication US11407811B2, “Fusion protein, preparation method therefor and use thereof” (JIANGSU RONGTAI BIOTECH CO., LTD., priority 2017, dated 2022):
# B1: Protein II: IgG2-Fc linked to antiangiogenesis polypeptide EDSM-Y via a flexible linker; SEQ ID NO: 17 (protein)
# chain: ERKCCVECPPCPAPPVAGPSVFLFPPKPKDTLMISRTPEVTCVVVDVSHEDPEVQFNWYVDGVEVHNAKTKPREEQFNSTFRVVSVLTVVHQDWLNGKEYKCKVSNKGLPAPIEKTISKTKGQPREPQVYTLPPSREEMTKNQVSLTCLVKGFYPSDISVEWESNGQPENNYKTTPPMLDSDGSFFLYSKLTVDKSRWQQGNVFSCSVMHEALHNHYTQKSLSLSPGKGGGGSGGGGSGGGGSFQPVLHLVALNSPLSGGMRGIRGADFQCFQQARAVGLAGTFRAGGGGRGD
# Experiments:
# [1] = system: IL-1β production by mouse peritoneal macrophages; assay: IL-1β production by mouse peritoneal macrophages (ELISA); assay type: cell-based
# Method: (1) IL-1β production: mice were intraperitoneally injected with 1 mL of broth medium containing 6% starch, and three days later, the mouse peritoneal macrophages were aseptically taken, washed twice with a 1640 medium, and the cell concentration was adjusted to 2×10^6 cells/mL, inoculated into a 24-well culture plate at 1 mL/well, incubated for 3 h in a cell incubator, and shaken once every 30 min, so that the cells were allowed to adhere sufficiently. Then, the cells were washed twice with a culture liquid to remove un-adhered cells. […] The supernatant was taken as a sample for testing activity of IL-1β.
# (2) Determination of IL-1β content: the detection was performed by using mouse IL-1β enzyme-linked immunosorbent assay kit from R&D company. According to the instructions of the kit, the procedures were as follows: the reaction well for the test samples and different concentrations of standards were sealed with sealing tapes, respectively, incubation was performed at 37° C. for 90 min; the plate was washed four times; a biotinylated antibody working solution (100 μL/well) was added, the reaction well was sealed with sealing tapes, and incubation was performed at 37° C. for 60 min; the plate was washed four times; an enzyme conjugate working solution (100 μL/well) was added, the reaction well was sealed with sealing tapes, incubation was performed at 37° C. for 30 min; the plate was washed four times; a developer (100 μL/well) was added, incubation was performed at 37° C. for 10 to 20 min, a stop solution (100 μL/well) was added and mixed and the OD450 value was measured.
# [2] = system: corneal neovascularization in mice; assay: Corneal neovascularization induced by alkali burn in BALB/c mice (MVD, CD31); assay type: in vivo
# Text: 15 healthy male BALB/c mice with weight of 20-25 g were examined under a slit lamp microscope for the anterior segment of both eyes and the appendage to exclude ocular lesions. The eyes were given 0.3% loxacin eye drops 1 day before the preparation of alkali burn model, twice a day. After the mice were anesthetized by intraperitoneal injection of 1.8% Avertin, single-layer filter paper with a diameter of 2 mm was clamped with tweezers, and immersed in a 1 mol/L sodium hydroxide solution to reach a saturated state, and the excess liquid was removed. […]
# 15 mice were randomly divided into […], with 5 rats in each group. […] On day 14 after alkali burn, the neovascularization of the corneal in each group was photographed and recorded under the slit lamp microscope for photographing anterior segment of the eye. […] The blood was washed with physiological saline, and the eyeballs were fixed in 4% paraformaldehyde for 1.5 h, dehydrated in PBS containing 30% sucrose overnight, embedded in an OCT tissue freezing medium, stored in a refrigerator at −80° C., subjected to cryosection at […] and detected by immunohistochemistry for CD31 expression.
# Microvessel density (MVD) is an indicator for evaluating angiogenesis. […] The number of new blood vessels in the entire section was counted under a 10×20 microscope. […]
# [3] = system: iris neovascularization in rabbits; assay: Iris neovascularization in rabbits; assay type: in vivo, rabbit; conditions: 128 μg, intravitreal injection once every 5 days for 2 weeks
# Method: The argon ion laser at 577 nm was used to occlude the major branch vein of rabbit retina, and a success venous occlusion was confirmed by fundus fluorescein angiography (FFA).
# 9 eyes successful in modeling were randomly divided into […]. They were labeled as a negative control group, and fusion protein I, protein II, protein III, protein IV and protein V treatment groups, respectively, which were respectively given physiological saline, 128 μg of fusion protein I, 128 μg of protein II, 128 μg of protein III, 128 μg of protein IV and 128 μg of protein V via intravitreal injection once every 5 days for 2 weeks. The observation was performed with an optical and electron microscope on the third week.
# [4] = system: choroidal blood flow in rabbit eyes; assay: Choroidal blood flow in rabbit eyes (color microsphere technique); assay type: in vivo; conditions: 128 μg intravitreal injection; for Blood flow: rabbit eyes with high intraocular pressure
# Method: New Zealand white rabbits with weight of 2.5-3.0 kg were randomly divided into […], which were labeled as a control group, and fusion protein I, protein II, protein III, protein IV, and protein V groups. White rabbits in each group were anesthetized with 35 mg/kg xylazine via intramuscular injection, and then anesthesia was maintained with half of the initial amount via intramuscular injection per hour. The intraocular pressure of the left eye was increased to 40 mmHg, under which the blood flow can be reduced to ⅓ of the normal value. The left ventricle was cannulated through right carotid artery for injection of microspheres (for the calculation of ocular blood flow), and the femoral artery was cannulated for blood collection. Each group was given physiological saline, 128 μg of fusion protein I, 128 μg of protein II, 128 μg of protein III, 128 μg of protein IV, and 128 μg of protein V via intravitreal injection. The ocular blood flow of rabbit eyes with high intraocular pressure was measured by a color microsphere technique at 0, 30, and 60 minutes after administration. At each time point, 0.2 mL (about 2 million) of microspheres were injected. Immediately after the microspheres were injected, blood was collected through the femoral artery for 60 seconds, and placed in a heparinized anticoagulant tube, and the amount of blood collected was recorded. After the last blood collection, the animals were sacrificed with 100 mg/kg phenobarbital via intravenous infusion. The eyeballs were removed, and the retina, choroid, iris and ciliary body were separated, and the tissue weight was recorded. The tissue blood flow at each time point was calculated with the following formula: Qm=(Cm×Qr)/Cr, where Qm represented tissue blood flow in μL/min/mg; Cm was the number of microspheres per milligram of tissue; Qr was blood flow in μL/min; and Cr was the number of blood microspheres as a reference.
molecule,measurement,setting,value
B1,IL-1β,[1]; dose 8 μg/mL,746.38 ± 16.59 pg/mL
same,PI (%),[1]; dose 8 μg/mL,11.85%
same,IL-1β,[1]; dose 32 μg/mL,596.02 ± 19.97 pg/mL
same,PI (%),[1]; dose 32 μg/mL,29.61%
same,IL-1β,[1]; dose 128 μg/mL,440.56 ± 11.38 pg/mL
same,PI (%),[1]; dose 128 μg/mL,47.97%
same,inhibition of IL-1β production,[1]; in words,could significantly inhibit IL-1β production
same,number of CD31-positive new blood vessels,[2]; compared with the control group,significantly reduced
same,MVD,"[2]; dose 64 μg, intravitreal injection, day 14 after alkali burn",24.64 ± 4.24
same,effect on iris neovascularization,[3],could inhibit neovascularization and regress the formed blood vessels
same,Blood flow,[4]; 0 min after administration,22.9 ± 2.5 µL/min/mg
same,Blood flow,[4]; 30 min after administration,15.7 ± 1.3 µL/min/mg
same,Blood flow,[4]; 60 min after administration,13.9 ± 1.2 µL/min/mg
same,choroidal blood flow,[4]; all observation time points,significantly increased
